Measured values: the supplement of paper PMC11780869

System: Bacillus subtilis
Assay: cleaved RNA product abundance (RNA/gDNA barcode ratio) relative to median wild-type variant (ratio to wild type); higher = more accumulation of the downstream cleavage product
How it was run: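 Reporter mRNAs based on truncated aprE or tetM carried barcoded, mutagenized RNase Y cleavage-site windows built from oligos with a 9% error rate and were integrated into the B. subtilis chromosome. Cultures grew in LB at 37°C from OD600 0.0003 to 0.3. Cleaved RNA was gel-selected, reverse transcribed and barcode-sequenced together with genomic DNA barcodes, and UMIs were collapsed. Cleaved product abundance is the per-construct ratio of RNA to gDNA barcodes, scaled to the median of constructs carrying the unmutated site.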

[1] = experiment (reporter, strain, medium): exp 2b: truncated aprE reporter, strain BJT200, cleavage site: cggR-gapA (positions -7 to +36 mutated)
[2] = experiment (reporter, strain, medium): exp 4a: truncated aprE reporter, strain BJT201 with 2% xylose (RNase J1 expressed), cleavage site: cggR-gapA (positions -7 to +36 mutated)
[3] = experiment (reporter, strain, medium): exp 8a: truncated aprE reporter, strain BJT201 with 2% xylose (RNase J1 expressed), cleavage site: glnRA (positions -5 to +31 mutated)

| Sequence | cleaved RNA product abundance [2] | cleaved RNA product abundance [3] | other results |
| --- | --- | --- | --- |
| ACAGACGAAGGAGCCGCAAAGAAGTTATTAAGCGATTAATAATCCCTCAATATAAATATCTCTCACTTATTTAAA | 0.0983 | – | cleaved RNA product abundance [1]: 0.0842 |
| CGACATGTCCCGCTTCTTTCATTAATCCGTTAGCATCTGTTTTTCTATATACATTTACCTTTTAAGAGGAGGAAT | – | 0.273 | – |
| ACAGACGAAGGAGCCGCAAAGAAGTTATTAAGGGATGTATAATTCCTCAATATAAATATCTCTCACTTATTTAAA | 0.576 | – | – |
| CGACATGTCCCGCTTCTTTCATTATTACGTTAGCAACCGTTTTGCTATATACATTTACCTTTTAAGAGGAGGAAT | – | 1.06 | – |
| ACAGACGAAGGAGCCGCAAAGAAGTTATTACGGGATGATTAATCCCTCAATATAAATATCTCTCACTTATTTAAA | 0.204 | – | – |
| CGACATGTCCCGCTTCTTTCATTAATCCGTTAGCAACTGTTTTGCTATCTACAGTTACCTTTTAAGAGGAGGAAT | – | 0.0519 | – |
| ACAGACGAAGGAGCCGCAAAGAAGTTATTAAAGGATGAATAATCCCTCAATATAGATATCTCTCACTTATTTAAA | 0.0996 | – | – |
| ACAGACGAAGGAGCCGCAAAGAATTTATTAAGGGATGAATAATCCCTCAATATAATTATCTCTCACTTATTTAAA | 0.354 | – | – |
| ACAGACGAAGGAGCCGCATAGAACTTATTAAGGGATGAATAATCCCTCAATATAAATATCTCTCACTTATTTAAA | 0.499 | – | cleaved RNA product abundance [1]: 0.341 |
| CGACATGTCCCGCTTCTTTCATTATTCCGTTAACAACTGTTTTACTATATACATTTACCTTTTAAGAGGAGGAAT | – | 0.257 | – |
| ACAGACGAAGGAGCCGCAAAGAAGTTATTAATGGATGAATAATCGCTCAATATAAATATCTCTCACTTATTTAAA | – | – | cleaved RNA product abundance [1]: 0.077 |
| ACAGACGAAGGAGCCGCAAAAAAGTTATTAAGGAATGAACAATCCCTCAATATAAATATCTCTCACTTATTTAAA | 0.182 | – | – |
| ACAGACGAAGGAGCCGCAACGAAGTTATTAAGGGAAGAATAATCCCTCAATATAAATATCTCTCACTTATTTAAA | 1.23 | – | – |
| ACAGACGAAGGAGCCGCAAAGAAGTTATTAAGGGATGACCAATCCCTCAATATAAATATCTCTCACTTATTTAAA | 0.749 | – | – |
| ACAGACGAAGGAGCCGCAAAGAAGTTATTAAAGGATGAATAATCCGTCAATATAAATATCTCTCACTTATTTAAA | 0.161 | – | cleaved RNA product abundance [1]: 0.16 |
| ACAGACGAAGGAGCCGCAAAGTAGTTATTAAGGGATGAATAGTCCCTCAATATAAATATCTCTCACTTATTTAAA | 0.883 | – | – |
| CGACATGTCCCGCTTCTTTCATTAATTCGTTAGCACCTGTTTTGCTATATACATTTACCTTTTAAGAGGAGGAAT | – | 0.658 | – |
| ACAGACGAAGGAGCCGCAAAGAAGTGATTAAGGGATAAATAATCCCTCAATATAAATATCTCTCACTTATTTAAA | 0.246 | – | – |
| ACAGACGAAGGAGCCGCAAAGAAGTTATTAAGAGATGAATAATCCCGCAATATAAATATCTCTCACTTATTTAAA | 0.154 | – | – |
| ACAGACGAAGGAGCCGCAAAGAAGTTATTAAGGGATGAATAATCCCTCAATATCAATATCTCTCACTTATTTAAA | 0.103 | – | cleaved RNA product abundance [1]: 0.126; cleaved RNA product abundance (experiment (reporter, strain, medium): exp 6: tetM reporter, strain 168, cleavage site: cggR-gapA (positions -7 to +36 mutated)): 0.216 |
| ACAGACGAAGGAGCCGCATAGAAGTTATTAAGGGATGAATAATCCCTCATTATAAATATCTCTCACTTATTTAAA | 0.41 | – | – |
| CGACATGTCCCGCTTCTTTCATTAATCCGTAAGCAATTGTTTTGCTATATACATTTACCTTTTAAGAGGAGGAAT | – | 0.524 | – |
| ACAGACGAAGGAGCCGCAAAGAAGTTATTAAGGGATGAATAATCCATCAATATAAATATTTCTCACTTATTTAAA | 0.286 | – | – |
| ACAGACGAAGGAGCCGCAAAGAACTTATTAAGGGTTGAATAATCCCTCAATATAAATATCTCTCACTTATTTAAA | 0.232 | – | cleaved RNA product abundance [1]: 0.218 |
| CGACATGTCCCGCTTCTTTCATTAATCCGTTAGCAACTGTTTTGATATATACATTTGCCTTTTAAGAGGAGGAAT | – | 0.378 | – |
| CGACATGTCCCGCTTCTTTCATTAATCCATTAGCAACTGTTTTGCTATATACATTAACCTTTTAAGAGGAGGAAT | – | 1.3 | – |
